Data on one substance can be found in article doi:10.1101/2020.07.06.190884.

Test [1] has as its target His-tagged PrgU (Enterococcus faecalis (plasmid pCF10)). The test is described as follows: SEC-MALS. A general note: SEC sorts molecules by how far they enter the pores of the column.
Test [2] shares this target. Briefly: GEMMA.

For orientation: stoichiometry N means the number of molecules, sites or subunits per partner or assembly. Take His-tagged PrgU (natural protein): the stoichiometry N in test [1] and in test [2] was 2 in each case.
